According to patent US20230181701A1:

Target: CD20 on Daudi cells (UniProt P11836)
Test: cell-based or functional assay

Chain of UniProt P11836 (P11836 whole entry): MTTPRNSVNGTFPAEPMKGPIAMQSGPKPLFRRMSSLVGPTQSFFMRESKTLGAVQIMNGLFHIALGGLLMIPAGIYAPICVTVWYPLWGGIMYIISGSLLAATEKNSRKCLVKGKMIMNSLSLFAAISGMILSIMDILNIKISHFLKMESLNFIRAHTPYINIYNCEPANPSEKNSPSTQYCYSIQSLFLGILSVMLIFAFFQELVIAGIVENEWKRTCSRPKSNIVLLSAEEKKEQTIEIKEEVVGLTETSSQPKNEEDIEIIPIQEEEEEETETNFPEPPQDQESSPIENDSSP

- CDC of Daudi cells with baby rabbit serum (CCK8) (% of cells dead): 70
Substance: Anti-CD20 IgG (Rituximab, N7022, 10 mg/mL, Mabthera) (antibody)
